Measured values as given in article PMC5397175, “Binding site density enables paralog-specific activity of SLM2 and Sam68 proteins in Neurexin2 AS4 splicing control”.
Substitutions are numbered along the chain they refer to.

T1: SLM2 (T-STAR) STAR domain (UniProt O75525 1-183)
T1 sequence: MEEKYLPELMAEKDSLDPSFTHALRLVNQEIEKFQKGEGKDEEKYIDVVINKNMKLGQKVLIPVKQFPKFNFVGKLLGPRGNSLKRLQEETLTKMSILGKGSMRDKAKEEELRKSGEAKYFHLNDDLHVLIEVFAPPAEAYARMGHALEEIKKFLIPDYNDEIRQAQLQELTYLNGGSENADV

B1: Nrxn2 WT (ssRNA)
RNA: CCCAAUUAAUUAAUUAAUUAACUAACUAACUAACUUUAAAAACACGAUCUUAAA
B2: Nrxn2 mutant 7 (ssRNA)
RNA: B1 RNA with U27C, A28C, U31C, A32C, U35C, U36C

Tests used:
[1] = target: T1, SLM2 (T-STAR) STAR domain; experiment: fluorescence polarization; FP buffer, salt, pH and temperature not given in the material; SD from three independent experiments; details: protein: recombinant; chain copies: 2; label: 5' fluorescein
Sam68 STAR domain = Sam68 STAR domain (UniProt Q07666 97-283); experiment: as above; details: protein: recombinant; chain copies: 2; label: 5' fluorescein
Sequence of Sam68 STAR domain (Q07666 97-283): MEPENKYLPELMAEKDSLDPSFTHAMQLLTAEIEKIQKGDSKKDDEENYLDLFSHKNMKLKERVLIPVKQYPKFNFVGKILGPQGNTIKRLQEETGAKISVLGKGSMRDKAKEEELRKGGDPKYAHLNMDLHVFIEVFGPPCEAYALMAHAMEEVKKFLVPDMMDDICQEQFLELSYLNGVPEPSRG

Binder | Kd [1] [µM] | Kd (Sam68 STAR domain) [µM]
B1 | 5.9 ± 0.9 | 2.9 ± 0.3
B2 | 3.9 ± 0.4 | 3.4 ± 0.3
